Earlier results on 1 molecule are cited in patent US20120245089A1, “USE OF THE SPARC MICROENVIRONMENT SIGNATURE IN THE TREATMENT OF CANCER” (ABRAXIS BIOSCIENCE, LLC, priority 2009, published 2012).

Data set [1] has as its system neuroblastoma tumor. The conditions noted are these: purified SPARC; in vivo xenograft model.
Data set [2] has as its system ovarian cancer cells.
Data set [3] deals with HOSE (human ovarian surface epithelial) and ovarian cancer cells. The conditions noted are these: exogenous SPARC; concentration-dependent.

B1: SPARC: matrix-associated protein; exogenous or purified SPARC in cited studies (protein, UniProt P09486 18-303, looked up)
SPARC: APQQEALPDETEVVEETVAEVTEVSVGANPVQVEVGEFDDGAEETEEEVVAENPCQNHHCKHGKVCELDENNTPMCVCQDPTSCPAPIGEFEKVCSNDNKTFDSSCHFFATKCTLEGTKKGHKLHLDYIGPCKYIPPCLDSELTEFPLRMRDWLKNVLVTLYERDEDNNLLTEKQKLRVKKIHENEKRLEAGDHPVELLARDFEKNYNMYIFPVHWQFGQLDQHPIDGYLSHTELAPLRAPLIPMEHCTTRFFETCDLDNDKYIALDEWAGCFGIKQKDIDKDLVI
On to B1, for which the “Angiogenesis and neuroblastoma tumor growth” value in data set [1] is “inhibit angio-gnesis and impair neuroblastoma tumor growth”. For the same molecule, the “Apoptosis in ovarian cancer cells” value in data set [2] was “induces apoptosis”. The “Proliferation of HOSE and ovarian cancer cells” value in data set [3] is listed as “reduce the proliferation”.
